According to publication PMC10590275 (Nature structural & molecular biology, 2023):

Key:
mass photometry = target: the molecule itself; assay: mass photometry
[1] = target: human dynein_(MOTOR)^MT-B (microtubule-bound mutant motor domain) (human | T. thermophilus); assay: mass photometry

B1: human LIS1-SNAP (natural protein)
chain: VLSQRQRDELNRAIADYLRSNGYEEAYSVFKKEAELDVNEELDKKYAGLLEKKWTSVIRLQKKVMELESKLNEAKEEFTSGGPLGQKRDPKEWIPRPPEKYALSGHRSPVTRVIFHPVFSVMVSASEDATIKVWDYETGDFERTLKGHTDSVQDISFDHSGKLLASCSADMTIKLWDFQGFECIRTMHGHDHNVSSVAIMPNGDHIVSASRDKTIKMWEVQTGYCVKTFTGHREWVRMVRPNQDGTLIASCSNDQTVRVWVVATKECKAELREHEHVVECISWAPESSYSSISEATGSETKKSGKPGPFLLSGSRDKTIKMWDVSTGMCLMTLVGHDNWVRGVLFHSGGKFILSCADDKTLRVWDYKNKRCMKTLNAHEHFVTSLDFHKTAPYVVTGSVDQTVKVWECR
stoichiometry N (mass photometry): 2 | stoichiometry N [1]: 1 LIS1 dimer per dynein_(MOTOR) monomer
